Experimental data from patent publication US20250084178A1 (ARCUS BIOSCIENCES, published 2025).
One block for each binder: values may come before it.

What was measured:
[1] = target: T1, human CD39 expressed on the cell surface (human, UniProt P49961 1-510); test: cell-based or functional assay
T1 sequence: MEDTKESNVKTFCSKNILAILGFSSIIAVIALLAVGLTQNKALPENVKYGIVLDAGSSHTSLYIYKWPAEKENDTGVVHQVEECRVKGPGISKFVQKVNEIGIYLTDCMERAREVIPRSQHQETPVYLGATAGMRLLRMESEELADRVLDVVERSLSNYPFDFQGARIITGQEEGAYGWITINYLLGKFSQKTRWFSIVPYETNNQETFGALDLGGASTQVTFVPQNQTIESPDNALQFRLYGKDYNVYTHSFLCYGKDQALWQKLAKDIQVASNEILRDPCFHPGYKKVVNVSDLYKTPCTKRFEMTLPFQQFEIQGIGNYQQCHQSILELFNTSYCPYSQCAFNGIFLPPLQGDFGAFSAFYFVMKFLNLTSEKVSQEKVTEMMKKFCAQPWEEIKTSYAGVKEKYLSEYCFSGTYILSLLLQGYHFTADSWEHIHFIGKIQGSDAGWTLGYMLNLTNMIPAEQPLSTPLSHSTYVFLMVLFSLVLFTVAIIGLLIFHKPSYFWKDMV

[2] = target: T1, human CD39 expressed on the cell surface; test: flow cytometry on human PBMCs gated on CD19+ B cells, one donor, 0 µM ATP
[3] = target: T1, human CD39 expressed on the cell surface; test: cell-based or functional assay; remark: listed apart in the source
[4] = target: T1, human CD39 expressed on the cell surface; test: flow cytometry on human PBMCs gated on CD14+ monocytes, 0 uM ATP (N = 8)
[5] = target: T1, human CD39 expressed on the cell surface; test: flow cytometry on human PBMCs gated on CD19+ B cells, 0 uM ATP (N = 8)
[6] = target: T1, human CD39 expressed on the cell surface; test: flow cytometry on human PBMCs gated on CD14+ monocytes, 400 uM ATP (N = 6)
[7] = target: T1, human CD39 expressed on the cell surface; test: flow cytometry on human PBMCs gated on CD19+ B cells, 400 uM ATP (N = 6)
[8] = target: T1, human CD39 expressed on the cell surface; test: flow cytometry on human PBMCs gated on CD19+ B cells, one donor, 400 µM ATP
[9] = target: T2, soluble His-tagged human CD39 ECD protein (human, UniProt P49961 38-478); test: SPR (Biacore 8K), antibody captured via anti-human Fc, CD39 ECD analyte
T2 construct: also called human CD39 ECD His-tagged antigen; Sino Biological Cat. No. 16020-H08B
T2 sequence: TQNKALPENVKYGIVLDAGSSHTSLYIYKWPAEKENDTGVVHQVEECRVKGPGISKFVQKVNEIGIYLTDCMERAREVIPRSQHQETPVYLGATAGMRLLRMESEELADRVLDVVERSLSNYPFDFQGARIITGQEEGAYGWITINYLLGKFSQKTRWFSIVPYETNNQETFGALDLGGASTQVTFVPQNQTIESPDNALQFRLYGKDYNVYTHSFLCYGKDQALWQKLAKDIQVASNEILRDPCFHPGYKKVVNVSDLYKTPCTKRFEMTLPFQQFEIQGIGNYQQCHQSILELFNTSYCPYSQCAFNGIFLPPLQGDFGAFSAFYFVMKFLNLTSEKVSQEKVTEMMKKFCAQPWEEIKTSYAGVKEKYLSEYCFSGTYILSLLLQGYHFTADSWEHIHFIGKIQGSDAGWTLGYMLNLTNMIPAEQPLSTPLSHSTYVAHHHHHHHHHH

[10] = target: T1, human CD39 expressed on the cell surface; test: cell-based or functional assay; remark: listed apart in the source
[11] = target: T1, human CD39 expressed on the cell surface; test: cell-based or functional assay; remark: listed apart in the source
[12] = target: T3, cynomolgus monkey CD39 expressed on HEK-293 cells (cynomolgus monkey, UniProt P49961 5-510 (human entry)); test: FACS on HEK293 cells overexpressing cynomolgus CD39
T3 construct: also called Cynomolgus Monkey CD39-HEK293
T3 chain: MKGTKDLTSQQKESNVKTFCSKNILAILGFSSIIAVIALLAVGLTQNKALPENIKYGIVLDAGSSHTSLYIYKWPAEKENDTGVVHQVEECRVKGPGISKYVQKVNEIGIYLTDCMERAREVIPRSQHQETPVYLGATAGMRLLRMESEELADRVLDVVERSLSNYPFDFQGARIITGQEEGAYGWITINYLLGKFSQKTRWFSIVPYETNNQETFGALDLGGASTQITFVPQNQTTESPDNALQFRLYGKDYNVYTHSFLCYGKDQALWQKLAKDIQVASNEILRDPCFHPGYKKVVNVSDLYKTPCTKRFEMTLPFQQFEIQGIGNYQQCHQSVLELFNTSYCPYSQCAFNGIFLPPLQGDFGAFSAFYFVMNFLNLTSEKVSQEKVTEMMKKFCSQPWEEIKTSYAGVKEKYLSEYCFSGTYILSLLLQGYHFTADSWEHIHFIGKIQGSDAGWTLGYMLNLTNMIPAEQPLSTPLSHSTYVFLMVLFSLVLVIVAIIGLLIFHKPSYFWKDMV

[13] = target: T1, human CD39 expressed on the cell surface; test: flow cytometry on purified human CD14+ monocytes, 400 uM ATP
[14] = target: T4, murine CD39 expressed on HEK-293 cells (murine, UniProt P55772 1-510); test: FACS on HEK-293 cells overexpressing murine CD39 (method of Example 1)
T4 construct: also called mouse CD39
T4 sequence: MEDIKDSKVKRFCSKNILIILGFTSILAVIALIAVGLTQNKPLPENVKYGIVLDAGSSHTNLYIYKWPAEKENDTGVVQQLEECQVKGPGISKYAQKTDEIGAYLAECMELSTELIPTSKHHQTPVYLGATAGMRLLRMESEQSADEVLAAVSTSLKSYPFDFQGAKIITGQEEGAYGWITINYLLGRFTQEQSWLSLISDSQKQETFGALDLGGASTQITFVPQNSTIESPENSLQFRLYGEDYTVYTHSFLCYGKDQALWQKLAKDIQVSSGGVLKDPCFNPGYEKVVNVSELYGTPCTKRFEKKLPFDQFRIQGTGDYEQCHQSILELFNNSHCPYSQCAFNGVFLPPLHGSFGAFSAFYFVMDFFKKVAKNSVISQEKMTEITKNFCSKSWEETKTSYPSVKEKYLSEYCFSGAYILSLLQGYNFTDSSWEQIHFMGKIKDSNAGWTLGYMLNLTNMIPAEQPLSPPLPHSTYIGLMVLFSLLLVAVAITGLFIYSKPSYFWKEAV

[15] = target: T1, human CD39 expressed on the cell surface; test: flow cytometry on purified human CD14+ monocytes, 0 uM ATP
[16] = target: T5, recombinant human CD39 (soluble) (human, UniProt P49961 38-478, limits assumed); test: cell-based or functional assay
T5 sequence (looked up): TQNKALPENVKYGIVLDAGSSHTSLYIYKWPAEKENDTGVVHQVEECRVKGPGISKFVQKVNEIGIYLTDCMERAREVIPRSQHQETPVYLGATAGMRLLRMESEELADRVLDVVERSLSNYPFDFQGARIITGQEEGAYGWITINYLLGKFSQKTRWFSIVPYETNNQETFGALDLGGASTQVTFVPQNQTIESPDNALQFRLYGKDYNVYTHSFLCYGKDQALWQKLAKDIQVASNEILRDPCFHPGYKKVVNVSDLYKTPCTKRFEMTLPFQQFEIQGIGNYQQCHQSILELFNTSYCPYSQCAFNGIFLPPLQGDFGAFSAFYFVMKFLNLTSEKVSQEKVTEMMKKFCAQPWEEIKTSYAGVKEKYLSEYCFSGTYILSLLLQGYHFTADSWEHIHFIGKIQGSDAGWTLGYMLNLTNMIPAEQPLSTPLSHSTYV

[17] = target: T1, human CD39 expressed on the cell surface; test: FACS on CHO-K1 cells overexpressing human CD39
[18] = target: T2, soluble His-tagged human CD39 ECD …; test: SPR (Biacore 8K), antibody captured via anti-human Fc, CD39 ECD analyte, 25 C
[19] = target: T1, human CD39 expressed on the cell surface; test: cell-based or functional assay; remark: listed apart in the source
[20] = target: T1, human CD39 expressed on the cell surface; test: flow cytometry on whole blood of C57BL/6 hCD39KI MC38 mice treated in vivo with isotype control, with saline or oxaliplatin; signal over the IgG1.FcS-AF647 isotype control (bottom row of panels)
[21] = target: T2, soluble His-tagged human CD39 ECD …; test: SPR (Biacore 8K), antibody captured via anti-human Fc, CD39 ECD analyte; remark: listed apart in the source

- IC50, CD39 enzymatic inhibition on human monocytes, 400 uM ATP [1]: 1.4 nM
- Max Inhibition (%), human monocytes, 400 uM ATP [1]: 62%
- EC50 (read off the curve) [2]: ~0.7 nM
- IC50, CD39 enzymatic inhibition on human monocytes, 20 uM ATP [3]: 2.7 nM
- Max Inhibition (%), human monocytes, 20 uM ATP [3]: 74%
- EC50 [4]: 1 nM
- EC50 [5]: 0.9 nM
- EC50 [6]: 1 nM
- EC50 [7]: 0.8 nM
- EC50 (read off the curve) [8]: ~0.8 nM
B1: huBMK2_IGG1.AEASS (antibody, human IgG1, kappa, V domains shown)
VH: QVQLVQSGAEVKKPGASVKVSCKASGYTFTDYNMHWVRQAPGQRLEWIGYIVPLNGGSTFNQKFKGRATITVDTSARTAYMELSSLRSEDTAVYYCARGGTRFAYWGQGTLVTVSS
VL: DIVMTQSPDSLAVSLGERATINCRASESVDNFGVSFMYWFQQKPGQPPKLLIYGASNQGSGVPDRFSGSGSGTDFTLTISSLQAEDVAVYYCQQTKEVPYTFGGGTKVEIKR
notes: also called previously described anti-CD39 antibody (comparator)

- Kd [9]: 0.129 nM
- koff [9]: 0.00015 s⁻¹
- kon [9]: 1.16e+06 M⁻¹ s⁻¹
- IC50, CD39 enzymatic inhibition on THP-1 cells, 20 uM ATP [10]: 0.14 nM
- Max Inhibition (%), THP-1 cells [10]: 86%
- IC50, CD39 enzymatic inhibition on SK-MEL-5 cells, 20 uM ATP [11]: 2.4 nM
- Max Inhibition (%), SK-MEL-5 cells [11]: 63%
- EC50 [12]: 2.55 nM
- EC50 [13]: 28 nM
- binding result [14]: no binding
- EC50 [15]: 27 nM
- IC50, inhibition of recombinant CD39 enzymatic activity, 20 uM ATP [16]: 1.3 nM
- Max Inhibition (%), recombinant CD39, 20 uM ATP [16]: 100%
- EC50 [17]: 4.44 nM
- Kd [18]: 0.113 nM
- koff [18]: 0.000125 s⁻¹
- kon [18]: 1.1e+06 M⁻¹ s⁻¹
- Human THP-1 CD39 inhibition IC50 [19]: 0.09 nM
B2: ch31_IGG4.P (antibody, human IgG4 S228P, kappa, V domains shown)
VH: EVHLQQSGAALVRPGTSVKLPCKVSGDSITAYFMHFVRQRPGQGLEWMGRIDPDHERTKYAEKFKNRASLTSETSSNTVFLQLTSLTSEDTATYFCTTERVPGFETDYWGQGVMVTVSS
VL: DIVLTQSPTLAVSLGQRATISCRTNQTVDHYGTTYMNWYQQKPGQQPKLLIYLASSLASGIPARFSGRGSGTDFTLTIDPVEADDTATYYCQQSRNLWTFGGGTKLELKR
notes: rat/human chimera of antibody 31, human IgG4 (S228P), kappa

- binding result [20]: binds
B3: hu39.5_IGG1.AA-AF647 (antibody, human IgG1, kappa, L234A L235A)
heavy: not shown
light: DTVLTQSPASLAVSPGQRATITCRASEGVKSYMHWYQQKPGQPPKLLIYKASNLASGVPARFSGSGSGTDFTLTINPVEADDTANYYCQQSWNDPTFGQGTKLEIKRTVAAPSVFIFPPSDEQLKSGTASVVCLLNNFYPREAKVQWKVDNALQSGNSQESVTEQDSKDSTYSLSSTLTLSKADYEKHKVYACEVTHQGLSSPVTKSFNRGEC
modifications: antibody conjugated to AF647 (Lightning Link kit; residues not stated)

- IC50, CD39 enzymatic inhibition on THP-1 cells, 20 uM ATP [10]: 0.11 nM
- Max Inhibition (%), THP-1 cells [10]: 67%
- IC50, CD39 enzymatic inhibition on SK-MEL-5 cells, 20 uM ATP [11]: 0.56 nM
- Max Inhibition (%), SK-MEL-5 cells [11]: 63%
- EC50 [12]: 0.32 nM
- EC50 [13]: 1.3 nM
- binding result [14]: no binding
- EC50 [15]: 0.69 nM
- IC50, inhibition of recombinant CD39 enzymatic activity, 20 uM ATP [16]: 2.3 nM
- Max Inhibition (%), recombinant CD39, 20 uM ATP [16]: 100%
- EC50 [17]: 0.79 nM
- Kd [21]: 0.336 nM
- koff [21]: 9.4e-05 s⁻¹
- kon [21]: 280000 M⁻¹ s⁻¹
- Kd [18]: 0.214 nM
- koff [18]: 7.45e-05 s⁻¹
- kon [18]: 348000 M⁻¹ s⁻¹
- Human THP-1 CD39 inhibition IC50 [19]: 0.042 nM
B4: ch39_IGG4.P (antibody, human IgG4 S228P, kappa)
heavy: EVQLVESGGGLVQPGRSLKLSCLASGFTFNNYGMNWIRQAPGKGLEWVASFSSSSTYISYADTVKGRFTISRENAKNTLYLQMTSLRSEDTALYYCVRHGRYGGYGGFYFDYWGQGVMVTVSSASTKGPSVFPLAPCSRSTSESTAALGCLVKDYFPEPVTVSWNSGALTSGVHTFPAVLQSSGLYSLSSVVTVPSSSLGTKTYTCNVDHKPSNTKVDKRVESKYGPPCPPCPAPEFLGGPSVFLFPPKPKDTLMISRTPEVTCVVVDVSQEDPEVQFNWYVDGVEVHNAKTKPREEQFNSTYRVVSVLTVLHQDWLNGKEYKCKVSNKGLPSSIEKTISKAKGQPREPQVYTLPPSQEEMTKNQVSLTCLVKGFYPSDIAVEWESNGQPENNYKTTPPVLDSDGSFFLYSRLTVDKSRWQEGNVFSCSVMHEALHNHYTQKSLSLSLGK
light: DTVLTQSPALAVSPGERVSISCRASEGVKSYMHWYQQKPGQQPKLLIYKASNLASGVPARFSGSGSGTDFTLTIDPVEADDTATYFCQQSWNDPTFGAGTKLELKRTVAAPSVFIFPPSDEQLKSGTASVVCLLNNFYPREAKVQWKVDNALQSGNSQESVTEQDSKDSTYSLSSTLTLSKADYEKHKVYACEVTHQGLSSPVTKSFNRGEC
notes: rat/human chimera of antibody 39, human IgG4 (S228P), kappa
